We go through 3 molecules from paper PMC6701479, “KAP1 is an antiparallel dimer with a functional asymmetry” (Life Science Alliance, 2019).

Data set [1] deals with the molecule itself. Briefly: SEC-MALS; KAP1 constructs alone, 10 to 40 μM; Superose 6 10/300 GL; 20 mM Hepes pH 7.5, 300 mM NaCl, 2 mM TCEP. For orientation: In gel filtration, larger molecules generally elute earlier.
The target of data set [2] is Atto 532–labeled HP1α (UniProt P45973 1-191, Atto 532 on a tripeptide (Thz-G2-C3-CONH2, thiazolidine opened) joined to the C terminus; C-terminal amide). Briefly: cell-based or functional assay.
Chain of Atto 532–labeled HP1α (P45973 whole entry): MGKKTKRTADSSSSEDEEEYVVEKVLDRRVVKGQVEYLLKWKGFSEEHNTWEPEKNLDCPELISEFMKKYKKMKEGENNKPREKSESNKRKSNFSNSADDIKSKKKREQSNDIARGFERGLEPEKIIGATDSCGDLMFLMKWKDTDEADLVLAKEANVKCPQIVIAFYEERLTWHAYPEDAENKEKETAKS

B1: KAP1 full-length protein (KAP1 FL, 1–835) (natural protein, human, UniProt Q13263 1-835, looked up)
chain: MAASAAAASAAAASAASGSPGPGEGSAGGEKRSTAPSAAASASASAAASSPAGGGAEALELLEHCGVCRERLRPEREPRLLPCLHSACSACLGPAAPAAANSSGDGGAAGDGTVVDCPVCKQQCFSKDIVENYFMRDSGSKAATDAQDANQCCTSCEDNAPATSYCVECSEPLCETCVEAHQRVKYTKDHTVRSTGPAKSRDGERTVYCNVHKHEPLVLFCESCDTLTCRDCQLNAHKDHQYQFLEDAVRNQRKLLASLVKRLGDKHATLQKSTKEVRSSIRQVSDVQKRVQVDVKMAILQIMKELNKRGRVLVNDAQKVTEGQQERLERQHWTMTKIQKHQEHILRFASWALESDNNTALLLSKKLIYFQLHRALKMIVDPVEPHGEMKFQWDLNAWTKSAEAFGKIVAERPGTNSTGPAPMAPPRAPGPLSKQGSGSSQPMEVQEGYGFGSGDDPYSSAEPHVSGVKRSRSGEGEVSGLMRKVPRVSLERLDLDLTADSQPPVFKVFPGSTTEDYNLIVIERGAAAAATGQPGTAPAGTPGAPPLAGMAIVKEEETEAAIGAPPTATEGPETKPVLMALAEGPGAEGPRLASPSGSTSSGLEVVAPEGTSAPGGGPGTLDDSATICRVCQKPGDLVMCNQCEFCFHLDCHLPALQDVPGEEWSCSLCHVLPDLKEEDGSLSLDGADSTGVVAKLSPANQRKCERVLLALFCHEPCRPLHQLATDSTFSLDQPGGTLDLTLIRARLQEKLSPPYSSPQEFAQDVGRMFKQFNKLTEDKADVQSIIGLQRFFETRMNEAFGDTKFSAVLVEPPPMSLPGAGLSSQELSGGPGDGP
notes: KAP1 (TRIM28, TIF1β), human, residues 1–835, complete full-length protein; His6 tag followed by a TEV protease cleavage site precedes the protein (pETDuet-1); no cleavage step is described; also called TIF1β; TRIM28; source: E. coli Rosetta (DE3) / Rosetta (DE3) pLys, purified (HisTrap, desalting, SEC)
The term stoichiometry N denotes the number of molecules, sites or subunits per partner or assembly. Regarding B1, the “stoichiometry N” value in data set [1] came to 2. For the same molecule, the “slow residence time τ_(off,2) of HP1α on H3K9me3 chromatin fibers (smTIRF), KAP1 50 to 400 nM” value in data set [2] was around 3 fold.

B2: ΔKAP1 (23–812) (domain or fragment, human, UniProt Q13263 23-812, looked up)
chain: GEGSAGGEKRSTAPSAAASASASAAASSPAGGGAEALELLEHCGVCRERLRPEREPRLLPCLHSACSACLGPAAPAAANSSGDGGAAGDGTVVDCPVCKQQCFSKDIVENYFMRDSGSKAATDAQDANQCCTSCEDNAPATSYCVECSEPLCETCVEAHQRVKYTKDHTVRSTGPAKSRDGERTVYCNVHKHEPLVLFCESCDTLTCRDCQLNAHKDHQYQFLEDAVRNQRKLLASLVKRLGDKHATLQKSTKEVRSSIRQVSDVQKRVQVDVKMAILQIMKELNKRGRVLVNDAQKVTEGQQERLERQHWTMTKIQKHQEHILRFASWALESDNNTALLLSKKLIYFQLHRALKMIVDPVEPHGEMKFQWDLNAWTKSAEAFGKIVAERPGTNSTGPAPMAPPRAPGPLSKQGSGSSQPMEVQEGYGFGSGDDPYSSAEPHVSGVKRSRSGEGEVSGLMRKVPRVSLERLDLDLTADSQPPVFKVFPGSTTEDYNLIVIERGAAAAATGQPGTAPAGTPGAPPLAGMAIVKEEETEAAIGAPPTATEGPETKPVLMALAEGPGAEGPRLASPSGSTSSGLEVVAPEGTSAPGGGPGTLDDSATICRVCQKPGDLVMCNQCEFCFHLDCHLPALQDVPGEEWSCSLCHVLPDLKEEDGSLSLDGADSTGVVAKLSPANQRKCERVLLALFCHEPCRPLHQLATDSTFSLDQPGGTLDLTLIRARLQEKLSPPYSSPQEFAQDVGRMFKQFNKLTEDKADVQSIIGLQRFFETRMNEAFGDTKFSAVLVEP
notes: His6 tag and TEV site precede the protein; no cleavage step is described; source: E. coli Rosetta (DE3) / Rosetta (DE3) pLys, purified (HisTrap, desalting, SEC)
For B2, in data set [1], the “stoichiometry N” value is 2.

B3: KAP1 RBCC domain (RBCC, 23–418) (domain or fragment, human, UniProt Q13263 23-418, looked up)
chain: GEGSAGGEKRSTAPSAAASASASAAASSPAGGGAEALELLEHCGVCRERLRPEREPRLLPCLHSACSACLGPAAPAAANSSGDGGAAGDGTVVDCPVCKQQCFSKDIVENYFMRDSGSKAATDAQDANQCCTSCEDNAPATSYCVECSEPLCETCVEAHQRVKYTKDHTVRSTGPAKSRDGERTVYCNVHKHEPLVLFCESCDTLTCRDCQLNAHKDHQYQFLEDAVRNQRKLLASLVKRLGDKHATLQKSTKEVRSSIRQVSDVQKRVQVDVKMAILQIMKELNKRGRVLVNDAQKVTEGQQERLERQHWTMTKIQKHQEHILRFASWALESDNNTALLLSKKLIYFQLHRALKMIVDPVEPHGEMKFQWDLNAWTKSAEAFGKIVAERPGTNST
notes: KAP1 (TRIM28), human, RBCC domain (RING, B-box 1, B-box 2, coiled coil), residues 23–418; His6 tag and TEV site precede the protein; no cleavage step is described; also called N-terminal RBCC domain of KAP1; source: E. coli Rosetta (DE3) / Rosetta (DE3) pLys, purified (HisTrap, desalting, SEC)
Take B3: the “stoichiometry N” value in data set [1] is 2.
